Test results published in US11795454B2, “Targeted delivery system” (Cedars-Sinai Medical Center, priority 2009, dated 2023).

Tests used:
HER2 siRNA = assay: siRNA gel mobility shift assay; format: binding; conditions: 50 pmol siRNA, increasing protein
Description: The gel was stained with ethidium bromide to visualize siRNA and siRNA-protein complexes.
One goal was to assemble a noncovalent siRNA conjugate. […] The duplex, which was obtained from Invitrogen (Carlsbad, CA, USA), has been established elsewhere to specifically eliminate HER2 transcripts and thus induce apoptosis (Choudhury et al., 2004; Faltus et al., 2004).

MDA-MB-435 (HER2+) cells [1] = assay: Cell survival (crystal violet) after targeted or lipo-mediated siRNA delivery; format: cell-based, human
Procedure: (§1) Complexes were prepared as described in FIG. 2. Un, untreated. In FIG. 12A, *, P<0.02 (HER2+ vs HER2− cells). In FIG. 12B, *, P<0.05 (compared to untreated). Significant differences determined by 2-tailed t tests.

MDA-MB-231 (HER2−) cells = assay: as above; format: cell-based, human
Procedure: as §1

HER2+ MDA-MB-435 tumors = assay: Tumor growth after intratumoral injection; format: in vivo, mouse; conditions: two IT injections a week apart, 1.5 nmoles siRNA
Procedure: FIGS. 15A-15B depict, in accordance with an embodiment herein, effect on tumor growth. Female (6-8 week) nude mice were inoculated with human HER2+ MDA-MB-435 cancer cells by subcutaneous flank injections of 1×10^7 cells per injection. At 4-6 weeks after implant, weekly measurements were taken to quantify tumor volume and track growth. […] Complex was prepared as described in FIG. 14. FIG. 15A, representative mice at week 4 with tumors indicated by arrows.
Before testing for targeted toxicity of HerPBK10-siRNA, the inventors assessed cytotoxic potential in vivo after intratumoral (IT) injection of complexes in tumor-bearing mice. […] Blood was also collected after each injection to assess cytokine levels. […] Even though the complex was not delivered intravenously but rather by IT injection, there still appears to be an advantage to the targeted complex with regard to tumor toxicity.

IFN-alpha [2] = assay: IFN-alpha secretion by sandwich ELISA, MDA-MB-231 cells; format: cell-based, human; conditions: 24 h
Procedure: (§2) FIGS. 13A-13B depict, in accordance with an embodiment herein, cytokine induction. […] At 24 h after treatment, media was collected from above the cells and assayed for (FIG. 13A) IFN-alpha, or (FIG. 13B) IFN-beta titer by sandwich ELISA following manufacturer's protocol (PBL Biomedical Laboratories). *, P<0.01 (compared to untreated); **, P=0.01 (HER2+ vs HER2− cells); †, P<0.05 (compared to untreated). Statistical significances determined by 2-tailed t tests.
(§3) To examine whether cytokines contribute to the targeted toxicity observed earlier, the media of HerPBK10-siRNA (T7-transcribed)-treated HER2+ MDA-MB-435 and HER2− MDA-MB-231 cells were collected and assayed by ELISA for interferons alpha and beta. […] Given the overall low level of cytokine detected in the medium by all treatments, these differences are likely to have little relevance.

[3] = test system: HER2+ human breast cancer cells; assay: Survival of HER2+ cells in culture after targeted conjugate (summary); format: cell-based; conditions: depending on the cell line
Description: The inventors designed HerPBK10 to penetrate HER2+ cells by combining the ‘Her’ domain for binding heregulin receptors, which have an increased ligand affinity on HER2+ tumor cells, and the membrane lysis and intracellular trafficking features of the ‘PB’ domain, which is derived from the cell-entry functions of the Ad capsid. Binding and transport of nucleic acids can be mediated by the polylysine, ‘K10’ domain. […] Using in vivo fluorescence imaging, it was observed that the targeting ligand used here specifically accumulates at HER2+ tumor tissue in mice while evading accumulation in other tissues. It was also observed that HerPBK10 could mediate the uptake of a Cy3-labeled oligonucleotide in HER2+ cells. […] Associated with this reduction was substantial target cell death.

[4] = Ultrafiltration of HerPBK10-siRNA conjugates (100K mwco, high speed centrifugation); format: physicochemical
Description: FIGS. 6A-6B depict, in accordance with an embodiment described herein, HerPBK10-siRNA form stable conjugates that can be isolated by ultrafiltration. Conjugates were made in 0.1M Hepes/OptimemI buffer for 20′-RT, as described above. […] Filtrates and retentates were collected and loaded onto either a 2% agarose (FIGS. 6A and 6B, left panel) or 5% PAGE/native gel (FIG. 6B, right panel). Gels were stained for Et-Br to visualize siRNA and siRNA-protein complexes.

IFN-alpha [5] = assay: IFN-alpha secretion by sandwich ELISA, MDA-MB-435 cells; format: cell-based, human; conditions: complex at 10 and 50 nM siRNA dose, HerPBK10 equivalent to 50 nM dose, 24 h
Procedure: as §2, §3

[6] = siRNA stability in serum, agarose gel electrophoresis; format: in vitro ADME, bovine; conditions: 100% serum, 1 h at 37° C.
Description: We examined the stability of siRNA conjugates in whole serum. […] Ethidium bromide staining of the agarose gel identifies the siRNA molecular size and relative concentration.

IFN-alpha [7] = assay: In vivo cytokine induction, blood IFN-alpha ELISA after IT injection; set-up: species or system mouse; conditions: 24 h after each IT injection, compared to saline control
Procedure: FIG. 16 depicts, in accordance with an embodiment herein, in vivo cytokine induction. Blood was collected from the mice treated in FIG. 15B at 24 h after each IT injection and relative IFN-alpha levels quantified by sandwich ELISA following manufacturer's protocol (PBL Biomedical Laboratories). Control, tumors receiving saline injections. *, P=0.05 compared to control (as determined by 2-tailed unpaired T test).
To examine whether cytokines contribute to the tumor reduction observed and described herein, blood was collected from the same mice at 24 h after each IT injection and assayed for interferon (TFN)-alpha. […] It is possible that its indirect contribution results from enhanced tumor delivery, penetration, retention. Together with the tumor-shrinkage observed from these injections, these findings provide additional evidence that the targeted carrier, HerPBK10, can deliver both siRNA-mediated silencing and cytokine-mediated cytotoxicity to induce two-pronged targeted destruction to tumor cells.

[8] = test system: HER2+ (MDA-MB-435) tumors; assay: In vivo tumor targeting of Cy5-labeled siRNA, fluorescence imaging; set-up: species or system mouse; conditions: tail vein injection
Description: FIGS. 23A-23C depict in accordance with an embodiment herein, monitoring in vivo tumor targeting. […] The mice were immediately monitored by in vivo fluorescence intensity imaging through our collaborators' imaging facility (Farkas lab, Cedars-Sinai Medical Center). 23C, Analysis of the fluorescence intensity contrast between tumor and non-tumor areas of 23A and 23B (graphs).

MDA-MB-435 (HER2+) cells [9] = assay: HerDox targeted toxicity in vitro, separate cultures; format: cell-based, human; conditions: 10× molar excess
Procedure: All treatments, N=3. FIG. 27A. Comparing cytotoxicity to HER2+ (MDAMB-435) and HER2− (MDA-MB-231) cells in separate cultures. Left, Relative survival (as % of untreated cells) on day 3 of treatment. Right, Micrograph of live cells after treatment. Control, mock (HBS) treatment. FIG. 27B, Receptor specificity of cytotoxicity. […] FIG. 27C, Toxicity to cells displaying differential HER2. Cytotoxicities from HerDox titrations were assessed on each cell line by metabolic assay and confirmed by crystal violet stain on day 3 of treatment. CD50 values (shown in log scale) were determined by non-linear regression analyses of HerDox killing curves using GraphPad Prism. The relative HER2 level of each cell line is shown next to each CD50 value. FIG. 27D, Targeting in a mixed MDA-MB-435(HER2+,GFP−)/MDA-MB-231(HER2−,GFP+) cell culture. Survival was determined by calculating the relative doubling time (DT) of experimental (exp) cells normalized by mock-treated (con) cells based on crystal violet stains (total cells) and GFP fluorescence (MDAMB-231 cells), and applying DTMDA-MB-435=DTTotal-DTMDA-MB-231 as previously described. Relative survival is shown for Day 2 of treatment. FIG. 27E, Targeted glioma cell death in vitro. U251 cells were treated once with the indicated HerDox (and competitive inhibitor where indicated) or Dox doses and measured for cell survival at the indicated time points after treatment. * P<0.05 compared to Mock.
For all in vitro treatments, cell lines were grown for ˜36 h after plating (104/well in 96-well dishes) to allow receptor re-expression, followed by media replacement with new media containing indicated constructs in reduced volume at the indicated final molarities for 4 h with rocking, followed by supplementation with additional media and continued growth for the indicated time periods. Except for the experiments performed on the U251 glioma cells (which received a one-time treatment), cells received these treatments daily while separate sets of wells were assessed for cell death by either metabolic assay (CellTiter Promega Corporation, Madison, WI, USA) or crystal violet stain each day. Where indicated, cells received competitive inhibitor (eHRG) at 10× molar excess for 30 min-1 h at 4° C. before treatment. Treatment of mixed (HER2+/HER2−) cell cultures with HerDox or Dox (0.5 uM), and cell surface receptor subunit level determination were performed as previously described.

PB: penton base segment of adenovirus serotype 5 [reference compound]
siRNA electromobility (HER2 siRNA): did not

B1: HerPBK10-siRNA: noncovalent conjugate of HerPBK10 with anti-HER2 siRNA bound via electrophilic interaction (conjugate)
chain: LPPRLKEMKSQESAAGSKLVLRCETSSEYSSLRFKWFKNGNELNRKNKPQNIKIQKKPGKSELRINKASLADSGEYMCKVISKLGNDSASANITIVESNEIITGMPASTEGAYVSSESPIRISVSTEGANTSSSTSTSTTGTSHLVKCAEKEKTFCVNGGECFMVKDLSNPSRYLCKCQPGFTGARCTENVPMKVQNQEKAEELYMRRAAMYEEGPPPSYESVVSAAPVAAALGSPFDAPLDPPFVPPRYLRPTGGRNSIRYSELAPLFDTTRVYLVDNKSTDVASLNYQNDHSNFLTTVIQNNDYSPGEASTQTINLDDRSHWGGDLKTILHTNMPNVNEFMFTNKFKARVMVSRLPTKDNQVELKYEWVEFTLPEGNYSETMTIDLMNNAIVEHYLKVGRQNGVLESDIGVKFDTRNFRLGFDPVTGLVMPGVYTNEAFHPDIILLPGCGVDFTHSRLSNLLGIRKRQPFQEGFRITYDDLEGGNIPALLDVDAYQASLKDDTEQGGGGAGGSNSSGSGAEENSNAAAAAMQPVEDMNDHAIRGDTFATRAEEKRAEAEAAAEAAAPAAQPEVEKPQKKPVIKPLTEDSKKRSYNLISNDSTFTQYRSWYLAYNYGDPQTGIRSWTLLCTPDVTCGSEQVYWSLPDMMQDPVTFRSTRQISNFPVVGAELLPVHSKSFYNDQAVYSQLIRQFTSLTHVFNRFPENQILARPPAPTITTVSENVPALTDHGTLPLRNSIGGVQRVTITDARRRTCPYVYKALGIVSPRVLSSRTFKKKKKKKKKK
cell survival (MDA-MB-435 (HER2+) cells [1]): dose-dependent reduction in survival
cell survival (MDA-MB-231 (HER2−) cells): little to no effect
tumor growth (HER2+ MDA-MB-435 tumors): average reduction in tumor growth
IFN-alpha secretion (IFN-alpha [2]): little affected
reduction in HER2+ cell survival [3]: up to 85%
Free siRNA in 100K filtrates [4]: low to no detection of free siRNA
IFN-alpha secretion (IFN-alpha [5]): substantially elevated
State of the siRNA (ethidium bromide staining) [6]: intact
circulating IFN-alpha (IFN-alpha [7]): elevated circulating IFN-alpha
tumor retention [8]: tumor retention
fluorescence intensity contrast between tumors and non-tumor areas ([8]; all time points, compared to free siRNA): preferential tumor accumulation

B2: eHRG: competitive inhibitor, competing ligand of the heregulin receptor (protein, UniProt Q02297 20-242, looked up)
extracellular domain: SGKKPESAAGSQSPALPPRLKEMKSQESAAGSKLVLRCETSSEYSSLRFKWFKNGNELNRKNKPQNIKIQKKPGKSELRINKASLADSGEYMCKVISKLGNDSASANITIVESNEIITGMPASTEGAYVSSESPIRISVSTEGANTSSSTSTSTTGTSHLVKCAEKEKTFCVNGGECFMVKDLSNPSRYLCKCQPGFTGARCTENVPMKVQNQEKAEELYQKR
modifications: extracellular domain
effect of competitive inhibitor on cell killing by HerDox (MDA-MB-435 (HER2+) cells [9]): prevented HER2+ cell killing
